The text below walks through data of patent US6137031, “DNA binding proteins that interact with NPR1” (Duke University, dated 2000).

To fix the notation:
B1: NPR1 1-177 (pEGNPR11-177) (other)
chain: MDTTIDGFADSYEISSTSFVATDNTDSSIVYLAAEQVLTGPDVSALQLLSNSFESVFDSPDDFYSDAKLVLSDGREVSFHRCVLSARSSFFKSALAAAKKEKDSNNTAAVKLELKEIAKDYEVGFDSVVTVLAYVYSSRVRPPPKGVSECADENCCHVACRPAVDFMLEVLYLAFIF
B2: TGA6 (full-length, two-hybrid prey in pJG4-5) (other)
chain: MADTSSRTDVSTDGDTDHRDLGSDRGHMHAAASDSSDRSKDKLDQKTLRRLAQNREAARKSRLRKKAYVQQLENSRLKLTQLEQELQRARQQGVFISSSGDQAHSTGGNGALAFDAEHSRWLEEKNRQMNELRSALNAHAGDTELRIIVDGVMAHYEELFRIKSNAAKNDVFHLLSGMWKTPAERCFLWLGGFRSSELLKLLANQLEPMTERQVMGINSLQQTSQQAEDALSQGMESLQQSLADTLSSGTLGSSSSDNVASYMGQMAMAMGQLGTLEGFIRQADNLRLQTLQQMLRVLTTRQSARALLAIHDYSSRLRALSSLWLARPRE
B3: AHBP-1b (full-length, two-hybrid prey in pJG4-5) (other)
chain: MADTSPRTDVSTDDDTDHPDLGSEGALVNTAASDSSDRSKGKMDQKTLRRLAQNREAARKSRLRKKAYVQQLENSRLKLTQLEQELQRARQQGVFISGTGDQAHSTGGNGALAFDAEHSRWLEEKNKQMNELRSALNAHAGDSELRIIVDGVMAHYEELFRIKSNAAKNDVFHLLSGMWKTPAERCFLWLGGFRSSELLKLLANQLEPMTERQLMGINNLQQTSQQAEDALSQGMESLQQSLADTLSSGTLGSSSSGNVASYMGQMAMAMGKLGTLEGFIRQADNLRLQTLQQMIRVLTTRQSARALLAIHDYFSRLRALSSLWLARPRE

In assay [1] the target is full-length A. thaliana NPR1 (two-hybrid bait in pEG202) (Arabidopsis thaliana) (UniProt P93002). Kind of assay: yeast two-hybrid, β-galactosidase reporter.
For assay [2], the target named is full-length tomato NPR1 homolog (tomato). Put plainly: yeast two-hybrid, β-galactosidase reporter.
For assay [3], the target named is B3. Put plainly: yeast two-hybrid, β-galactosidase activity.
Assay [4] addresses npr1-1 mutant NPR1 bait (Arabidopsis thaliana, UniProt P93002). Kind of assay: yeast two-hybrid, β-galactosidase activity.
In assay [5] the target is npr1-2 mutant NPR1 bait (Arabidopsis thaliana, UniProt P93002). Put plainly: yeast two-hybrid, β-galactosidase activity.
Assay [6] addresses NPR1 1-432 (pEGNPR11-432) (Arabidopsis thaliana) (UniProt P93002). Put plainly: yeast two-hybrid, β-galactosidase reporter.
Assay [7] deals with NPR1 178-593 (pEGNPR1178-593) (Arabidopsis thaliana) (UniProt P93002). Kind of assay: yeast two-hybrid, β-galactosidase reporter.

In assay [1], “OBF5 (full-length, two-hybrid prey in pJG4-5) (from UniProt Q39163)” yielded a units of β-galactosidase activity of 7.6 units.
With NIF1 (NPR-1-Interacting Factor 1), in assay [2], the units of β-galactosidase activity was determined as 1290 units.
On to B1, for which, in assay [3], the binding result is “no binding”.
Consider B2, for which the units of β-galactosidase activity in assay [1] came to 372 units. Besides, the binding result in assay [4] and in assay [5] was “no binding” in each case.
Turning to B3, the values for the units of β-galactosidase activity in assay [6], in assay [7] and in assay [1] were 522 units, 17.6 units and 673 units, respectively. Further, the binding result in assay [4] and in assay [5] was “no binding” in each case.
